# Measurements as given in patent publication US20030077273A1.
# Assays:
# [1] = molecular target: human CD21 on Raji cells (CD21+ human Burkitt's lymphoma cell line) (human) (UniProt P20023); assay: flow cytometry, control BSA-coated microspheres on Raji cells, 50 microspheres per cell
# [2] = molecular target: human CD21 on Raji cells (CD21+ human Burkitt's lymphoma cell line) (human) (UniProt P20023); assay: flow cytometry, control BSA-coated microspheres on Raji cells, 25 microspheres per cell
# [3] = molecular target: human CD21 on Raji cells (CD21+ human Burkitt's lymphoma cell line) (human) (UniProt P20023); assay: flow cytometry, control BSA-coated microspheres on Raji cells, 100 microspheres per cell
# [4] = molecular target: human CD21 on Raji cells (CD21+ human Burkitt's lymphoma cell line) (human) (UniProt P20023); assay: cell ELISA on Raji cells, anti-mouse IgG-AP
# [5] = molecular target: mouse Ig G lambda (isotype of the Ig fusion partner), coated on wells; assay: direct ELISA, MoIg-coated control wells, anti-mouse Ig kappa-AP
# [6] = molecular target: human CD21 on Raji cells (CD21+ human Burkitt's lymphoma cell line) (human) (UniProt P20023); assay: flow cytometry on Raji cells, anti-mouse IgG-FITC
# [7] = molecular target: recombinant soluble human CD21 (1-2)-Ig fusion protein (human) (UniProt P20023); assay: direct ELISA, sCD21-coated wells, anti-mouse Ig kappa-AP
# Chain of recombinant soluble human CD21 (1-2)-Ig fusion protein (human) (P20023 21-148): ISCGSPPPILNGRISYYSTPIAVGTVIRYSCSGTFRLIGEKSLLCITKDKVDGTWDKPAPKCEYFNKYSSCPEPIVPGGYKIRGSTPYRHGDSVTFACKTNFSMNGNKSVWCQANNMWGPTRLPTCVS
# [8] = molecular target: human CD21 on Raji cells (CD21+ human Burkitt's lymphoma cell line) (human) (UniProt P20023); assay: flow cytometry, competition: C3d beads 25:1 on Raji cells with 30 ng HB5
# [9] = molecular target: human CD21 on Raji cells (CD21+ human Burkitt's lymphoma cell line) (human) (UniProt P20023); assay: flow cytometry, competition: C3d beads 25:1 on Raji cells with 15 ng HB5
# [10] = molecular target: human CD21 on Raji cells (CD21+ human Burkitt's lymphoma cell line) (human) (UniProt P20023); assay: flow cytometry, competition: C3d beads 50:1 on Raji cells with 30 ng HB5
# [11] = molecular target: human CD21 on Raji cells (CD21+ human Burkitt's lymphoma cell line) (human) (UniProt P20023); assay: flow cytometry, competition: C3d beads 100:1 on Raji cells with 15 ng HB5
# [12] = molecular target: human CD21 on Raji cells (CD21+ human Burkitt's lymphoma cell line) (human) (UniProt P20023); assay: flow cytometry, competition: C3d beads 50:1 on Raji cells with 15 ng HB5
# [13] = molecular target: human CD21 on Raji cells (CD21+ human Burkitt's lymphoma cell line) (human) (UniProt P20023); assay: flow cytometry, competition: C3d beads 100:1 on Raji cells with 30 ng HB5
# Chain of human CD21 on Raji cells (CD21+ human Burkitt's lymphoma cell line) (human) (P20023 21-1033): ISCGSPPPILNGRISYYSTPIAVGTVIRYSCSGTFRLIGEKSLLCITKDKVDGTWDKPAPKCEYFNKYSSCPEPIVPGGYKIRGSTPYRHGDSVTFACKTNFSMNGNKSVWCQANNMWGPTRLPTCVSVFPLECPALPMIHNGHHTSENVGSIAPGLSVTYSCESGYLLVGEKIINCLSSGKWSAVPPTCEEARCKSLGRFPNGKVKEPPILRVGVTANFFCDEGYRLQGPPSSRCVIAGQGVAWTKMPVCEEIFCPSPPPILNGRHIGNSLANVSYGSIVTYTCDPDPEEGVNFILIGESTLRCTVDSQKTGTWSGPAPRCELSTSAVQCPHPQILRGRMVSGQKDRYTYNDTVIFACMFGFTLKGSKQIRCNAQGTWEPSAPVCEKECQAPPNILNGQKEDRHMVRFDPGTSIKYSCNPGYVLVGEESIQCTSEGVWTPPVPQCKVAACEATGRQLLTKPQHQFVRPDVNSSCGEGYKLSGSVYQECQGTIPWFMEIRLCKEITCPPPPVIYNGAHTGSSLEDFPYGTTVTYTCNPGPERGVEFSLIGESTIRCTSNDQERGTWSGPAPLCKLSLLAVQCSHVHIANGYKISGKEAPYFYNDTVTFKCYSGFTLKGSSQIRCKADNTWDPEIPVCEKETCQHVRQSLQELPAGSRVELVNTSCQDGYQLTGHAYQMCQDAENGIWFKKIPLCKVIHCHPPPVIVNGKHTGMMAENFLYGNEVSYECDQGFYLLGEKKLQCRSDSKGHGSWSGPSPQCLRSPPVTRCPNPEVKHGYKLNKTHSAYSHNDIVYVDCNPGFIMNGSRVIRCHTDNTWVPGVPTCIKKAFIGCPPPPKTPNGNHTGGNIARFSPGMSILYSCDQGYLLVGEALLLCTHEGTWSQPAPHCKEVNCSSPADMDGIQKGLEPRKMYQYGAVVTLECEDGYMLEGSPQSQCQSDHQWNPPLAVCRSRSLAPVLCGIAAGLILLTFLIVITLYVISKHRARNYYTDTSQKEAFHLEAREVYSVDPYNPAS
substance,measurement,setting,value
BSA coated on 1 um fluorescent microspheres (from UniProt P02769 25-607),% Cells Bound,[1],6.83%
same,% Cells Bound,[2],1.5%
same,% Cells Bound,[3],22.6%
Mouse IgG (control) (antibody),OD 550 nm,[4],0.072 OD 550 nm
"OKB7 (mouse anti-human CD21, Ortho Diagnostics) (antibody)",OD,[5],0.096 OD
same,Mean Fluorescent Index (MFI),[6],123 MFI
same,OD,[7],0.44 OD
anti-human CD21 mAb BE-5 (BioSource International) (antibody),Mean Fluorescent Index (MFI),[6],85 MFI
same,OD 550 nm,[4],0.546 OD 550 nm
anti-human CD21 mAb Bly-4 (antibody),OD 550 nm,[4],1.17 OD 550 nm
mouse anti-human CD21 mAb HB5 (BD Pharmingen) (antibody),% Cells Bound (by C3d beads in presence of mAb),[8],15.4%
same,% Inhibition by mAb,[8],29.7%
same,% Cells Bound (by C3d beads in presence of mAb),[9],19.4%
same,% Inhibition by mAb,[9],11.8%
same,% Cells Bound (by C3d beads in presence of mAb),[10],39.8%
same,% Inhibition by mAb,[10],20.5%
same,% Cells Bound (by C3d beads in presence of mAb),[11],69.3%
same,% Inhibition by mAb,[11],6.5%
same,% Cells Bound (by C3d beads in presence of mAb),[12],42.4%
same,% Inhibition by mAb,[12],15.3%
same,% Cells Bound (by C3d beads in presence of mAb),[13],67.2%
same,% Inhibition by mAb,[13],9.4%
same,Mean Fluorescent Index (MFI),[6],117 MFI
